Data taken from US20110065645A1, “Compositions and Methods for Modulating Neuron Degeneration and Neuron Guidance” (The Regents of the University of California, priority 2009, published 2011).

System: JNK
Test: Phospho-Jun immunoblot in HEK293T cells expressing Fzd3-mCherry
Type: cell-based
Details: Wnt5a added
Source text: Vgl2 antagonizes Dvl1's feedback inhibition of Fzd3 mediated Wnt/PCP Signaling. To elucidate how core PCP components function cell autonomously, we first explored how Dvl1, Vgl2 and Fzd3 interact with each other. It is known that Dvl is a central cytoplamsic molecule in the activation of Wnt-PCP signaling. In non-canonical signaling, Fzd is thought recruit Dvl to the plasma membrane and Dvl then subsequently activates the downstream signaling, such as Jun N terminal kinases (JNK), Rac1 and RhoA. […] However, upon co-expression of Fzd3 and Dvl1, we found a surprising Wnt5a-dependent down regulation of p-Jun level (FIG. 17A, lanes 5-7, quantified in FIG. 17B), uncovering a novel feedback inhibition mechanism in PCP signaling. With 30 minutes of Wnt5a addition p-Jun signal is essentially gone in Fzd3 and Dvl1 co expressing cells, (FIG. 17A lane 7).
Surface biotinylation and immunopreciptiation. […] For the membrane immunoprecipitation, 600 ug of protein extracts were incubated overnight and retrieved by NeutrAvidin-coated Agarose beads (Pierce), the bound fraction was boiled and loaded on SDS-PAGE gel and analyzed by western blot analysis. […]

B1: Wnt5a: recombinant Wnt5a protein (R&D Systems) (protein, UniProt P41221 62-380, looked up)
Protein Wnt-5a: IIGAQPLCSQLAGLSQGQKKLCHLYQDHMQYIGEGAKTGIKECQYQFRHRRWNCSTVDNTSVFGRVMQIGSRETAFTYAVSAAGVVNAMSRACREGELSTCGCSRAARPKDLPRDWLWGGCGDNIDYGYRFAKEFVDARERERIHAKGSYESARILMNLHNNEAGRRTVYNLADVACKCHGVSGSCSLKTCWLQLADFRKVGDALKEKYDSAAAMRLNSRGKLVQVNSRFNSPTTQDLVYIDPSPDYCVRNESTGSLGTQGRLCNKTSEGMDGCELMCCGRGYDQFKTVQTERCHCKFHWCCYVKCKKCTEIVDQFVCK
p-Jun level: increased
